Patent US20090169473A1, “DIAGNOSTIC AGENT AND THERAPEUTIC AGENT FOR DISEASE ASSOCIATED WITH HEPATOCYTE GROWTH FACTOR RECEPTOR” (FUJIFILM RI PHARMA CO., LTD., priority 2005, published 2009)
Blank lines part the entries; values can stand above or below the molecule they belong to.

Assays:
[1] = test system: HGF receptor expression site (infarct border zone); assay: Dual nuclide autoradiography in myocardial ischemia model rats; type: in vivo, CD(SD) IGS rats; settings: 60 MBq femoral vein
Protocol: CD(SD) IGS rats (10-week-old) were anesthetized by intraperitoneally administering pentobarbital Na (35 mg/kg). After tracheostomy, an artificial respirator was attached to the rat. The left chest was opened, and an electrocardiogram was measured before coronary ligation. The coronary artery and its peripheral tissue (surrounding several millimeters) were ligated with suture, and ischemic state was determined on the basis of ST rise and recorded by an electrocardiogram. After recording, the chest was closed, and the trachea and the skin were sutured.
Three days after production of the myocardial ischemia model, a blood flow imaging agent ^99mTc-MIBI (Cardiolight Injection; DAIICHI RADIOISOTOPE LABS., LTD.) and [^125I]HGF(11-83)-NH2 (73 aa) were administered to each model rat. Blood flow was assessed through dual nuclide autoradiography and HE staining. ^99mTc-MIBI was administered at 60 MBq through a femoral vein. […] On the day of the experiment, the sample was affixed to an imaging plate for 30 minutes, and a ^99mTc-MIBI accumulation image was recorded by means of a bio-imaging analyzer BAS-1800 (FIG. 9). After 7-days attenuation period for ^99mTc for seven days, the sample was set again to the imaging plate for seven days, and a [^125I]HGF(11-83)-NH2 (73 aa) accumulation image was recorded by means of a bio-imaging analyzer BAS-1800 (FIG. 10).

[2] = test system: HGF receptor expression site (infarct border zone); assay: Pinhole-SPECT imaging in myocardial ischemia model rats; type: in vivo, Wistar rats; settings: 90 MBq left femoral vein
Protocol: Wistar rats (8-week-old) were anesthetized with isoflurane (Forane (R), Abbott). After tracheostomy, an artificial respirator connected to an anesthetizer was attached to each rat. The left chest was opened, and an electrogardiogram was measured before coronary ligation. The coronary artery and its peripheral tissue were ligated with suture. During ligation, nylon filament was placed as a spacer between the coronary artery and the suture in order to weaken the ligation strength so as not to completely intercept the blood flow. Ischemic state was determined on the basis of ST rise and recorded by an electrocardiogram. After recording, the left chest was closed, and the trachea and the skin were sutured.
Under inhalation anesthesia with isoflurane, ^99mTc-MIBI (90 MBq) was injected into the left femoral vein of each myocardial ischemia model rat. Subsequently, [^123I]HGF(11-83)-NH2 (73 aa) (100 MBq) prepared in a manner similar to that of Example 2 was administered through the right femoral vein. Thirty minutes after the administration, pinhole-SPECT imaging was conducted using a gamma camera (PRISM 2000, Shimadzu Corporation) (Imaging conditions: pinhole collimator, matrix sizes: 256×256, Mag 1.0, energy windows ^99mTc: 140 keV 10% and ^123I: 159 keV 10%, 3° 60 sec/step). […]

[3] = Heparin-binding activity by heparin affinity column HPLC; settings: for NaCl concentration at elution from heparin column: TSK-gel Heparin-5PW, linear gradient 0 to 2M NaCl, pH 7.5, room temperature
Protocol: The heparin-binding activity of [^125I]HGF(11-83)-NH2 (73 aa) produced in Example 1 was determined with high-performance liquid chromatography employing a heparin column. hrHGF (PEPTIDE INSTITUTE, INC.), having a high heparin-binding activity, was used as a positive control.
<High-Performance Liquid Chromatography Conditions>
Column: TSK-gel Heparin-5PW (0.75×7.5 cm): product of TOHSO
solution A: 10 mM Na phosphate buffer (pH 7.5);
solution B: 10 mM Na phosphate buffer (pH 7.5)+2M NaCl;
0 min to 3 min: solution A 100%
3 min to 30 min: linear gradient solution B 0% to 100%
Temperature: room temperature (about 25° C.)

[4] = test system: c-Met-expressed McA-RH7777 cells (rat-origin liver cancer cells) tumor; assay: Accumulation in c-Met expressing tumor of implanted mice, autoradiography; type: in vivo, nude mice (BALB/c nu/nu); settings: compared with anti-c-Met antibody (SP-260) immunohistochemical staining of serial sections
Protocol: c-Met-specific accumulation of [^125I]HGF(11-83)-NH2 (73 aa) in a tumor was observed by autoradiography and immunohistostaining in mice subcutaneously implanted c-Met expressing cancer cells.
3. Observation of c-Met-Specific Accumulation of [^125I]HGF(11-83)-NH2 (73 aa) in a Tumor of Mice Subcutaneously Implanted c-Met Expressing Cancer Cells by Autoradiography and Immunohistostaining
A suspension of c-Met-expressed McA-RH7777 cells (rat-origin liver cancer cells) (200 μL, 2.0×10^6 cells) was subcutaneously injected to a right hindlimb of 6-week-old nude mice (BALB/c nu/nu: Japan SLC, Inc.). On day 9 (tumor volume: […] (McA-RH7777 cells)), the aforementioned labeled HGF-fragment (370 kBq/100 μL) was intravenously administered to each mouse. The tumor was isolated with muscles surrounding the tumor 15 minutes after administration, and frozen sections were prepared. Each frozen section was affixed to an imaging plate (Fuji Photo Film Co., Ltd) for seven days, and a [^125I]HGF(11-83)-NH2 (73 aa) accumulation image was observed by means of a bio-imaging analyzer BAS-1800 (Fuji Photo Film Co., Ltd) (FIG. 5). […] Serial frozen sections were subjected to hematoxylin-eosin (HE) staining (FIG. 6) and immunohistochemical staining with anti-c-Met antibody (SP-260) (FIG. 7).

[5] = target: T1, HGF receptor of HuCCT1 cells (Homo sapiens, UniProt P08581); assay: Binding assay on HuCCT-1 cells with inhibition by hrHGF
T1 construct: c-Met-expressing HuCCT-1 cells (human-origin cholangiocarcinoma cells); endogenous in cells; host or cells: HuCCT-1 (human cholangiocarcinoma cells)
Protocol: Inhibition of binding of [^125I]HGF(11-83)-NH2 (73 aa) to c-Met-expressing HuCCT-1 cells (human-origin cholangiocarcinoma cells) by human recombinant HGF (hrHGF) was determined by the binding assay.
Specifically, a suspension of HuCCT-1 cells (100 μL, (1.5×10^5 cells)) prepared for a binding inhibition test was placed in an Eppendorf tube whose inner surface had been coated with bovine serum albumin (BSA), and a solution of hrHGF (PEPTIDE INSTITUTE, INC.) (50 μL, final concentration: 379 nM) was added to the tube. A negative control was prepared by adding a binding buffer (0.2% BSA, 20 mM HEPES Hanks' solution, pH 7.0) (50 μL) instead of the rhHGF solution. To the samples, 0.758 nM [^125I]HGF(11-83)-NH2 (73 aa) solution (50 μL) (final concentration: 0.190 nM, ratio by amount to hrHGF: 1:2,000) was added. Each Eppendorf tube containing HuCCT-1 cells was stirred and incubated at room temperature for one hour, followed by centrifuged at 4° C. (3,000 rpm, 3 min) to precipitate the cells. The supernatant was removed by means of an aspirator. The cells were stirred with an ice-cooled binding buffer (500 μL), and the mixture was centrifuged (3,000 rpm, 3 min). The procedure was repeated thrice. The radioactivity of the Eppendorf tube containing HuCCT-1 cells was measured by means of a gamma counter. The average and the standard deviation of the radioactivity (cpm) were calculated for the samples to which the hrHGF solution had been added (hrHGF(+)) and for the samples to which the binding buffer had been added (hrHGF(−)). The difference between the averages was assessed through the Student's t-test.

T1 sequence (P08581 25-307 limits assumed): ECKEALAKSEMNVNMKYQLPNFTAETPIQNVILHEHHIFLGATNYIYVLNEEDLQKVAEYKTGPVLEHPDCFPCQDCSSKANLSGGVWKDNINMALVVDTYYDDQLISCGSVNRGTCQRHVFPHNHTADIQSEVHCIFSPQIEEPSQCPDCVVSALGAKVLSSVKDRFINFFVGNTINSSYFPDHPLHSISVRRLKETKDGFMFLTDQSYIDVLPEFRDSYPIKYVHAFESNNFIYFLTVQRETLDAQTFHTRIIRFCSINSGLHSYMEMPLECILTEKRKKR
T1 sequence (P08581 308-1390 limits assumed): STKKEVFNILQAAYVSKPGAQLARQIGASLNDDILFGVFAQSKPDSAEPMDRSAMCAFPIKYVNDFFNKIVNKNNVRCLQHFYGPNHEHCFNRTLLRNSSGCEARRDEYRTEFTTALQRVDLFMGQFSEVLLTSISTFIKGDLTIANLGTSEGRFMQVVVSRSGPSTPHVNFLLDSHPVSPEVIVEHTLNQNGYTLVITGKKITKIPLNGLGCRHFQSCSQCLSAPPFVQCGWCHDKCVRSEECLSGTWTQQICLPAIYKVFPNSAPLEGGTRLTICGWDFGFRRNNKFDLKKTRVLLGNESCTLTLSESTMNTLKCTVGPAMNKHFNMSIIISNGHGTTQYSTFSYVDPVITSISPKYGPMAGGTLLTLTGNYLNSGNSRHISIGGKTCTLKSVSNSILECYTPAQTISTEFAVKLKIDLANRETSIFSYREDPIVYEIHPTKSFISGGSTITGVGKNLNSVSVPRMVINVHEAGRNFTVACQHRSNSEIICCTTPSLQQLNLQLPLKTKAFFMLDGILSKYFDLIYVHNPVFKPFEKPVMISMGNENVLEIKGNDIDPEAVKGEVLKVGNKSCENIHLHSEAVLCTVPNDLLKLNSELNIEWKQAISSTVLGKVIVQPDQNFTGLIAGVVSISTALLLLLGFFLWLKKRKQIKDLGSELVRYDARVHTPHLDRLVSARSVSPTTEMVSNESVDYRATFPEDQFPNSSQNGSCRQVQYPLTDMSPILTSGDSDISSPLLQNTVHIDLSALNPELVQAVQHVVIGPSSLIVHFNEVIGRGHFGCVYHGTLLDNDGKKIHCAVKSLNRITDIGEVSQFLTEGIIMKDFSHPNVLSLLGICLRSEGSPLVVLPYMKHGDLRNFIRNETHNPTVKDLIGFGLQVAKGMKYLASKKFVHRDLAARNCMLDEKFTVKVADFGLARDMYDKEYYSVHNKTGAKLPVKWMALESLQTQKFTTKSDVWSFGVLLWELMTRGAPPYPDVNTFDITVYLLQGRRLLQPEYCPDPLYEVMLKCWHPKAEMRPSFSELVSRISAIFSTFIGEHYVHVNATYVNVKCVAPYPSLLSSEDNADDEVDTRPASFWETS

Molecule: [99Tc].[C-]#[N+]CC(C)(C)OC.[C-]#[N+]CC(C)(C)OC.[C-]#[N+]CC(C)(C)OC.[C-]#[N+]CC(C)(C)OC.[C-]#[N+]CC(C)(C)OC.[C-]#[N+]CC(C)(C)OC [^99mTc-MIBI]
Accumulation at the infarct border zone (autoradiography) [1]: reduced accumulation | Accumulation at the infarct border zone (pinhole-SPECT) [2]: reduced accumulation

NaCl concentration at elution from heparin column [3]: about 1.5 M
Molecule: hrHGF: human recombinant HGF (PEPTIDE INSTITUTE, INC.), positive control with high heparin-binding activity [reference compound]

Radioactivity bound to HuCCT1 cells, hrHGF(+) samples ([5]; 0.190 nM labeled peptide with 379 nM hrHGF, room temperature, one hour, mean±SD): 20916.9±1574.2 cpm | Radioactivity bound to HuCCT1 cells, hrHGF(−) samples ([5]; 0.190 nM labeled peptide, room temperature, one hour, mean±SD): 26136.2±2580.8 cpm | Reduction of binding to the cells by addition of hrHGF ([5]; hrHGF 379 nM, 2,000-fold mole concentration, P=0.040): 20% | NaCl concentration at elution from heparin column [3]: about 1.3 M | Portion of the sample with strong heparin-binding activity ([3]; from the peak area ratios): about 80% | Area ratio of the heparin-binding peak ([3]; peak at 20.3 min, other peaks are free 125I and decomposed or denatured peptide): 78.1%
B1: [^125I]HGF(11-83)-NH2 (73 aa): labeled product prepared through directly introducing 125I into HGF(11-83)-NH2 (73 aa) (peptide)
peptide: FKKSAKTTLIKIDPALKIKTKKVNTADQCANRCTRNKGLPFTCKAFVFDKARKQCLWFPFNSMSSGVKKEFGH
Specificity of accumulation in tumor [4]: c-Met-specific
